These results are taken from PMC6258952, “Visualization of Calcium Ion Loss from Rotavirus during Cell Entry” (Journal of Virology, 2018).

Test [1] concerns the target VP5 CT fragment from sequential chymotrypsin-trypsin digestion of VP4 Rhod5F (rhesus rotavirus (RRV)). Put plainly: SDS-PAGE of unboiled and boiled samples; VP4 469C-Rhod5F digested with chymotrypsin (37°C, 30 min) then trypsin (room temperature, 1 h); reducing sample buffer (200 mM DTT), boiled at 95°C for 3 min or kept at room temperature for 3 min; 5-to-20% gradient gel, UV light and Coomassie blue.

For test [2], the target named is T1, wild-type recombinant VP4 labeled with Atto 565 NHS ester (rhesus rotavirus (RRV), UniProt P12473 1-776, Atto 565 NHS ester, about 1 dye molecule per VP4 monomer (residues not stated)).
T1 construct: VP4, outer layer spike protein of rhesus rotavirus (RRV), wild type; also called VP4-565; rVP4; source: Sf9 cells infected with a baculovirus vector, purified (ammonium sulfate, Phenyl HP, HiTrap Q, S200)
The test is described as follows: co-sedimentation; recoating of labeled DLP: 100 mM sodium acetate pH 5.2, VP4 at 0.9 mg/ml (~33-fold excess) 1 h at room temperature, then VP7 in 2.3-fold excess with 1 mM CaCl2 for 1 h; recoated particles separated from excess components by cesium chloride gradient centrifugation; dyes seen on single particles by confocal imaging. The conditions noted are these: both partners purified.

In test [3] the target is T2, wild-type recombinant VP4 labeled with pHrodo Red succinimidyl ester (rhesus rotavirus (RRV), UniProt P12473 1-776, pHrodo Red succinimidyl ester, 1 dye molecule per 2 VP4 monomers (residues not stated)).
T2 construct: VP4, outer layer spike protein of rhesus rotavirus (RRV), wild type; also called VP4-pHrodo Red; wt VP4; source: Sf9 cells infected with a baculovirus vector, purified (ammonium sulfate, Phenyl HP, HiTrap Q, S200)
The description is as above. The conditions noted are these: both partners purified.

For test [4], the target named is T3, VP4 mutated at position 469 from serine to cysteine (rhesus rotavirus (RRV), UniProt P12473 1-776, S469C).
T3 construct: VP4, outer layer spike protein of rhesus rotavirus (RRV), with S469C; Unlabeled during recoating; It was labeled on the purified rcTLP afterwards with DBCO-maleimide and Rhod5F azide; also called VP4 469C; S469C; source: Sf9 cells infected with a baculovirus vector, purified (ammonium sulfate, Phenyl HP, HiTrap Q, S200)
The description is as above. As to conditions: both partners purified.

As usually defined, the stoichiometry N is a count of units in the complex or per binding partner. On to “VP5 CT fragment from sequential chymotrypsin-trypsin digestion of VP4 Rhod5F (domain or fragment)”, for which the stoichiometry N in test [1] turned out to be 3.

B1: Atto 488 NHS ester-labeled VP7 (natural protein)
chain: QNYGINLPITGSMDTAYANSTQEETFLTSTLCLYYPTEAATEINDNSWKDTLSQLFLTKGWPTGSVYFKEYTDIASFSVDPQLYCDYNVVLMKYDATLQLDMSELADLILNEWLCNPMDITLYYYQQTDEANKWISMGSSCTIKVCPLNTQTLGIGCLTTDTATFEEVATAEKLVITDVVDGVNHKLDVTTATCTIRNCKKLGPRENVAVIQVGGSDVLDITADPTTAPQTERMMRINWKKWWQVFYTVVDYVNQIIQAMSKRSRSLNSAAFYYRI
modifications: Atto 488 NHS ester (residues not stated)
notes: VP7, Ca2+-stabilized outer layer protein of rhesus rotavirus (RRV); also called VP7-488
For the molecule B1, the binding result in test [2], in test [3] and in test [4] was “binds” each time.
